In US20160177307:

Biological target: PDGF-BB (platelet-derived growth factor BB) (Homo sapiens) (UniProt P01127)
Assay: filter
[1] = all Z are BndU, rest DNA, SB18T, 37 C

PDGF-BB (platelet-derived growth factor BB) (Homo sapiens), sequence (P01127 82-190): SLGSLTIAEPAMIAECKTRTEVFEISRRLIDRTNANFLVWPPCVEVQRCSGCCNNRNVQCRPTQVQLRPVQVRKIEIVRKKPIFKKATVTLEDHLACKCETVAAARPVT

## TTACGTTACACGCGTTTATAGCG [4149-8_276]
Bn-dU, FBn-dU7, Ib-dU8, Pe-dU17, Th-dU18, Heg5, 2'-OMe A3, A11, A21, G24
  Kd: > 10 nM

## CGACAGCATGTATGCACATCT [5169-4_113]
NapdU at P, 2'-OMe 7,16,21
  Kd: 0.012 nM

## TTACGTTACACGCGTTTATAGCG [4149-8_180]
Bn-dU, Trp-dU17, Heg5, 2'-OMe A3, A11, A21, G24
  Kd: > 10 nM

## TTACGTTACGCGTTTATAGCG [4149-8_304]
Bn-dU, C3 linkers, 2'-OMe
  Kd: > 10 nM

## CGACAGCATGTATGCACATCT [5169-4_177]
As 5169-4_146, PS 20, 3' inverted dT
  Kd: 0.0072 nM

## TTACGTTACACGCGTTTATAGCG [4149-8_351]
Bn-dU, Pe-dU17, 2'-F C14, Heg, 2'-OMe
  Kd: > 10 nM

## GACAGCATGTATGCACATCTAG [5169-4_28]
NapdU at P
  Kd: 0.048 nM

## CGACAGCATGTATGCACATCTAGAGGCTACCCAGTG [5169-4_16]
NapdU at P
  Kd: 0.016 nM

## CGACAGCATGTATGCACATCT [5169-4_111]
NapdU at P, 2'-OMe 7,14,16
  Kd: 0.0048 nM

## TTACGTTACACGCGTTTATAGCG [4149-8_305]
Bn-dU, 2'-OMe Bn-U1, Heg5, 2'-OMe A3, A11, A21, G24
  Kd: > 10 nM

## TTACGACTACGTTACACGCTTTATAGCG [4149-8_83]
Bn-dU, C3 at 20
  Kd: > 10 nM

## CGACAGCATGTATGCACATCTAGAGGCTA [5169-4_18]
NapdU at P
  Kd: 0.026 nM

## CGACAGCATGTATGCACATCTAGAGGCTACCCAGTGAA [5169-4_12]
NapdU at P
  Kd: 0.064 nM

## TTACGTTACCGCGTTTATAGCG [4149-8_419]
As 4149-8_379, 2'-OMe 15, NapdU 16
  Kd: 1.3 nM

## CGACAGCATGTATGCACATCT [5169-4_150]
As 5169-4_146, PS 2, 3' inverted dT
  Kd: 0.013 nM

## CGACAGCATGTATGCACATCT [5169-4_123]
NapdU at P, 2'-OMe 1,20,21
  Kd: 0.03 nM

## CTTACGACTACGTTACACGCGTTTATAG [4149-8_32]
[1]
  Kd: 6 nM

## CGACAGCATGTATGCACATCT [5169-4_44]
2'-OMe A5, NapdU at 9,11,13,19,21, 2'-OMe substitution
  Kd: 0.53 nM

## TTACGTTACCGCGTTTATAGCG [4149-8_422]
As 4149-8_379, 2'-OMe 13,15
  Kd: 0.27 nM

## ATCTCTTACGACTACGTTACACGCGTTTATAGCGTCAACCCGAGTG [4149-8_5]
[1]
  Kd: 0.02 nM

## CACAGCATGTATGCACATCT [5169-4_60]
C3 spacer at 2, NapdU at 9,11,13,19,21, C3 spacer walk
  Kd: 27 nM

## TTACGTTACCGCGTTTATAGCG [4149-8_436]
As 4149-8_379, BndU 2, PS 9,15,17
  Kd: 0.0077 nM

## CGACAGCATGTATGCACATCT [5169-4_114]
NapdU at P, 2'-OMe 7,17,21
  Kd: 0.038 nM

## CTTACGACTACGTTACACGCGTTTATAGCGT [4149-8_29]
[1]
  Kd: 0.07 nM

## TTACGACTACGTTACACGCGTTTATAGCG [4149-8_104]
Bn-dU, 2'-OMe U2
  Kd: > 10 nM

## CGACAGCATGTATGCACATCT [5169-4_35]
NapdU at P, 2'-OMe 7
  Kd: 0.016 nM

## GACAGCATGTATGCACATCT [5169-4_59]
C3 spacer at 1, NapdU at 9,11,13,19,21, C3 spacer walk
  Kd: 0.053 nM

## TTACGTTACACGCGTTTATAGCG [4149-8_244]
Bn-dU, Heg5, 2'-OMe A3, A9, A11, A21, G24
  Kd: > 10 nM

## CTGCCTCGACAGCATGTATGCACATCTAGAGGCTACCCAGTGAATGA [5169-4_7]
NapdU at P
  Kd: 0.014 nM

## TTACGTTACACGCGTTTATAGCG [4149-8_309]
Bn-dU, 2'-OMe Bn-U16, Heg5, 2'-OMe A3, A11, A21, G24
  Kd: > 10 nM

## CTTACGACTACGTTACACGCGTTTAT [4149-8_34]
Bn-dU
  Kd: > 10 nM

## TTACGTTACACGCGTTTATAGCG [4149-8_348]
Bn-dU, Pe-dU17, 2'-F A9, Heg, 2'-OMe
  Kd: > 10 nM

## TTACGTTACCGCGTTTATAGCG [4149-8_391]
BndU, PS 9,15, 2'-OMe, Heg 5, C3 11
  Kd: 0.012 nM

## CGACAGCATGTATGCACATCT [5169-4_45]
2'-OMe A8, NapdU at 9,11,13,19,21, 2'-OMe substitution
  Kd: 0.93 nM

## CGACAGCATGTATGCACATCT [5169-4_131]
NapdU at P, 2'-OMe 4,5,6
  Kd: 0.64 nM

## E10030 (Fovista)
comparator
  Kd: 0.047 nM

## CGACAGCATGTATGCACATCT [5169-4_173]
As 5169-4_146, PS 4, 3' inverted dT
  Kd: 0.0091 nM

## CGACAGCATGTATGCACATCTAG [5169-4_24]
NapdU at P
  Kd: 0.021 nM

## CGACAGCATGTATGCACATCT [5169-4_81]
NapdU at P, 2'-OMe 7,14,16,18
  Kd: 0.0049 nM

## CGACAGCATGTATGCACATCT [5169-4_181]
As 5169-4_146, PS 18, 3' inverted dT
  Kd: 0.021 nM

## CGACAGCATGTATGCACATCT [5169-4_176]
As 5169-4_146, PS 17, 3' inverted dT
  Kd: 0.014 nM

## CGACAGCATGTATGCACATT [5169-4_78]
NapdU at P, C3 spacer at 20
  Kd: 0.28 nM

## CGACAGCATGTATGCACATCT [5169-4_41]
NapdU at P, 2'-OMe 10
  Kd: 0.097 nM

## CGACGCATGTATGCACATCT [5169-4_63]
NapdU at P, C3 spacer at 5
  Kd: 29 nM

## TTACGTTACACGCGTTTATAGCG [4149-8_350]
Bn-dU, Pe-dU17, 2'-F C10, Heg, 2'-OMe
  Kd: > 10 nM

## TACGACTACGTTACACGCGTTTATAGCGTCAACCCGAGTGAACA [4149-8_13]
[1]
  Kd: 0.8 nM

## TTACGACTACGTTACACGCGTTATAGCG [4149-8_84]
Bn-dU, C3 at 21
  Kd: > 10 nM

## CGACAGCATGTATGCACATCT [5169-4_116]
NapdU at P, 2'-OMe 4,17,21
  Kd: 0.093 nM

## TTACGTTACACGCGTTTATAGCGNT [4149-8_339]
4149-8_260 3'-3' dimer, C3, doubler
  Kd: 0.0062 nM

## CTTACGACTACGTTACACGCGTTTATAGCGTCAACCCGAGTGAACA [4149-8_12]
[1]
  Kd: 0.04 nM

## CGACAGCATGTATGCACATCT [5169-4_34]
NapdU at P, 2'-OMe 4
  Kd: 0.033 nM

## CGACAGCATGTATGCCATCT [5169-4_74]
NapdU at P, C3 spacer at 16
  Kd: 0.37 nM

## CGACAGCATGTATGCACATCTAGAGGC [5169-4_20]
NapdU at P
  Kd: 0.014 nM

## TTACGACTACGTTACACGCGTTTATGCG [4149-8_89]
Bn-dU, C3 at 26
  Kd: > 10 nM

## CGACAGCATGTATGCACATCT [5169-4_130]
NapdU at P, 2'-OMe 7,8,9
  Kd: 4.5 nM

## CGACAGCATGTATGCACATCT [5169-4_42]
2'-OMe G14, NapdU at 9,11,13,19,21, 2'-OMe substitution
  Kd: 0.0069 nM

## CGACAGCATGTATGCACATCT [5169-4_53]
NapdU at P, 2'-OMe 21
  Kd: 0.022 nM

## TTACGTTACACGCGTTTATAGCG [4149-8_364]
Bn-dU, dT8, Heg5, 2'-OMe A3, A11, A21, G24
  Kd: > 10 nM

## CGACAGCATGTATGCACATCT [5169-4_124]
NapdU at P, 2'-OMe 5,20,21
  Kd: 0.6 nM

## CTCTTACGACTACGTTACACGCGTTTATAGCGTCAACCCGAGTGAACA [4149-8_11]
[1]
  Kd: 0.03 nM

## TACGACTACGTTACACGCGTTTATAGCG [4149-8_65]
Bn-dU, C3 at 2
  Kd: > 10 nM

## TTACGACTACTTACACGCGTTTATAGCG [4149-8_74]
Bn-dU, C3 at 11
  Kd: > 10 nM

## TTACGACTACGTTCACGCGTTTATAGCG [4149-8_77]
Bn-dU, C3 at 14
  Kd: > 10 nM

## CGACACATGTATGCACATCT [5169-4_64]
C3 spacer at 6, NapdU at 9,11,13,19,21, C3 spacer walk
  Kd: 0.054 nM

## CGACAGCATGTATGCACATCT [5169-4_153]
As 5169-4_146, PS 8, 3' inverted dT
  Kd: 0.013 nM

## TTACGTTACCGCGTTTATAGCG [4149-8_434]
As 4149-8_379, PS 9,15
  Kd: 0.032 nM

## TTACGTTACACGCGTTTATAGCG [4149-8_252]
Trp, Ib, NE, Th, Pe, MBn dU, Heg, 2'-OMe
  Kd: > 10 nM

## CGACAGCATGTATGCACATCT [5169-4_37]
NapdU at P, 2'-OMe 17
  Kd: 0.041 nM

## CTGCCTCGACAGCATGTATGCACATCTAGAGGCTACCC [5169-4_10]
NapdU at P
  Kd: 0.63 nM

## TTACGTTACACGCGTTTATAGCG [4149-8_178]
Bn-dU, Trp-dU8, Heg5, 2'-OMe A3, A11, A21, G24
  Kd: > 10 nM

## TTACGTTACACGCGTTTATAGCG [4149-8_129]
Bn-dU, Nap-dU, Heg, 2'-OMe
  Kd: > 10 nM

## TTACGACTACGTTACACGCGTTTATACG [4149-8_90]
Bn-dU, C3 at 27
  Kd: > 10 nM

## TTACGTTACCGCGTTTATAGCG [4149-8_421]
As 4149-8_379, 2'-OMe 13
  Kd: 0.019 nM

## TTACGACTACGTTACACGCGTTTAAGCG [4149-8_88]
Bn-dU, C3 at 25
  Kd: > 10 nM

## TTACGACTACGTTACACGCGTTTATAGCG [4149-8_111]
Bn-dU, Nap-dU1, 2'-OMe U25
  Kd: > 10 nM

## CGACAGCATGTATGCACATCT [5169-4_55]
NapdU at 9,13,19,21, dT at 11, dT substitution
  Kd: 7.8 nM

## TTACGTTACACGCGTTTATAGCG [4149-8_127]
Bn-dU, Nap-dU, Heg, 2'-OMe U as printed
  Kd: > 10 nM

## TTACGTTACACGCGTTTATAGCG [4149-8_251]
Tyr, MBn, FBn, Ib, 2Nap, Pe, Th, NE dU, Heg, 2'-OMe
  Kd: > 10 nM

## TTACGTTACACGCGTTTATAGCG [4149-8_134]
Bn-dU
  Kd: > 10 nM

## CTGCCTCGACAGCATGTATGCACATCTAGAGGCTACCCAGTGAA [5169-4_8]
NapdU at P
  Kd: 0.036 nM

## CGACAGCATGTATGCACATCT [5169-4_110]
NapdU at P, 2'-OMe 1,14,16
  Kd: 0.005 nM

## CGACAGCATGTATGCACATCT [5169-4_38]
NapdU at P, 2'-OMe 20
  Kd: 0.022 nM

## CTTACGACTACGTTACACGCGTTTA [4149-8_35]
Bn-dU
  Kd: > 10 nM

## CGACAGCATGTATGCACATCT [5169-4_115]
NapdU at P, 2'-OMe 4,7,21
  Kd: 0.024 nM

## TTACGTTACCGCGTTTATAGCG [4149-8_418]
As 4149-8_379, 2'-OMe 15
  Kd: 0.21 nM

## CGACAGCATGTATGCACATCT [5169-4_125]
NapdU at P, 2'-OMe 1,5,20
  Kd: 1 nM

## TTACGTTACCGCGTTTATAGCG [4149-8_426]
As 4149-8_379 plus 2'-OMe A9,G13 or G15 as printed in SEQ:409
  Kd: 42 nM

## CGACAGCATGTATGCACATCT [5169-4_172]
As 5169-4_146, PS 1, 3' inverted dT
  Kd: 0.013 nM

## GACAGCATGTATGCACATCT [5169-4_30]
All P are NapdU, rest DNA, SB18T, 37 C
  Kd: 0.062 nM
